Among the data in article doi:10.1101/2025.01.09.632101 are Kd values, retold here.

The experiment has as its target DPEP1-Avi: porcine DPEP1 ectodomain (residues 17-385) with Strep and Avi tags, biotinylated (porcine (Sus scrofa)) (UniProt P22412). The experiment in a line: BLI. For orientation: In BLI a coated tip is dipped into the sample, and binding shifts an interference pattern.

As a reminder, the Kd is the constant that tells how readily two partners part at equilibrium. A high value points to a looser complex.

Chain of UniProt P22412 (P22412 17-385): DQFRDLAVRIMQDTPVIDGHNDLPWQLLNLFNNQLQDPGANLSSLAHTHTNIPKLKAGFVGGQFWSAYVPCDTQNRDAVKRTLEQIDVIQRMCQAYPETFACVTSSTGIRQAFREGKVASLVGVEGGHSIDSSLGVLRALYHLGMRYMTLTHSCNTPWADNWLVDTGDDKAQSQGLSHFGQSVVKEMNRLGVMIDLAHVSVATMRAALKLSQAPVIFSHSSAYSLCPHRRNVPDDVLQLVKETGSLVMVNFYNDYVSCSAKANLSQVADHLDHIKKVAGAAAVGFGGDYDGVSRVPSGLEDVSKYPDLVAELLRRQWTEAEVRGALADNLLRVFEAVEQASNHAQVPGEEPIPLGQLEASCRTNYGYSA

In turn, “PHEV spike RBD (residues 327-605), from Expi293F cells, with His, Strep and Avi tags (domain or fragment)” yielded a Kd of 1500 nM.
